Laboratory results reported in article PMC4090178, “Structural and Biochemical Characterization of Human PR70 in Isolation and in Complex with the Scaffolding Subunit of Protein Phosphatase 2A” (PLoS ONE, 2014).

B1: PR70 core fragment (residues 130–483) (domain or fragment, human, UniProt Q9Y5P8 130-483, looked up)
chain: FPRGRPQDSVNVDAVISKIESTFARFPHERATMDDMGLVAKACGCPLYWKGPLFYGAGGERTGSVSVHKFVAMWRKILQNCHDDAAKFVHLLMSPGCNYLVQEDFVPFLQDVVNTHPGLSFLKEASEFHSRYITTVIQRIFYAVNRSWSGRITCAELRRSSFLQNVALLEEEADINQLTEFFSYEHFYVIYCKFWELDTDHDLLIDADDLARHNDHALSTKMIDRIFSGAVTRGRKVQKEGKISYADFVWFLISEEDKKTPTSIEYWFRCMDLDGDGALSMFELEYFYEEQCRRLDSMAIEALPFQDCLCQMLDLVKPRTEGKITLQDLKRCKLANVFFDTFFNIEKYLDHEQK
notes: PR70 (B''β), regulatory B'' subunit of PP2A, human, product of PPP2R3B; The crystal (PDB 4MEW) was of the selenomethionine-labelled protein alone; the model holds residues 134–481; also called PR70 core domain; source: E. coli BL21(DE3), purified (IMAC, TEV cleavage, gel filtration); not shown: His tag, N-terminal, cleaved
B2: PR70 (25–575) (domain or fragment, human, UniProt Q9Y5P8 25-575, looked up)
chain: EASTQRMLQDCLRRIKAPGRDQPTPGDGEQPGAWPTAPLAAPRPSGLEPPGTPGPGPALPLGAASSPRNAPHVRGTRRSAGTRVVQTRKEEPLPPATSQSIPTFYFPRGRPQDSVNVDAVISKIESTFARFPHERATMDDMGLVAKACGCPLYWKGPLFYGAGGERTGSVSVHKFVAMWRKILQNCHDDAAKFVHLLMSPGCNYLVQEDFVPFLQDVVNTHPGLSFLKEASEFHSRYITTVIQRIFYAVNRSWSGRITCAELRRSSFLQNVALLEEEADINQLTEFFSYEHFYVIYCKFWELDTDHDLLIDADDLARHNDHALSTKMIDRIFSGAVTRGRKVQKEGKISYADFVWFLISEEDKKTPTSIEYWFRCMDLDGDGALSMFELEYFYEEQCRRLDSMAIEALPFQDCLCQMLDLVKPRTEGKITLQDLKRCKLANVFFDTFFNIEKYLDHEQKEQISLLRDGDSGGPELSDWEKYAAEEYDILVAEETAGEPWEDGFEAELSPVEQKLSALRSPLAQRPFFEAPSPLGAVDLYEYACGDEDLEPL
notes: PR70 (B''β), regulatory B'' subunit of PP2A, human, product of PPP2R3B; also called B''/PR70; source: E. coli BL21(DE3), purified (IMAC, TEV cleavage, gel filtration); not shown: His tag, N-terminal, cleaved
B3: PR72 (24–529) (domain or fragment, UniProt Q06190-2 24-529, looked up)
chain: GCDFVLPSRFKKRLKSFQQTQIQNKPEKKPGTPLPPPATSPSSPRPLSPVPHVNNVVNAPLSINIPRFYFPEGLPDTCSNHEQTLSRIETAFMDIEEQKADIYEMGKIAKVCGCPLYWKAPMFRAAGGEKTGFVTAQSFIAMWRKLLNNHHDDASKFICLLAKPNCSSLEQEDFIPLLQDVVDTHPGLTFLKDAPEFHSRYITTVIQRIFYTVNRSWSGKITSTEIRKSNFLQTLALLEEEEDINQITDYFSYEHFYVIYCKFWELDTDHDLYISQADLSRYNDQASSSRIIERIFSGAVTRGKTIQKEGRMSYADFVWFLISEEDKRNPTSIEYWFRCMDVDGDGVLSMYELEYFYEEQCERMEAMGIEPLPFHDLLCQMLDLVKPAVDGKITLRDLKRCRMAHIFYDTFFNLEKYLDHEQRDPFAVQKDVENDGPEPSDWDRFAAEEYETLVAEESAQAQFQEGFEDYETDEPASPSEFGNKSNKILSASLPEKCGKLQSVDEE
notes: PR72 (B''α2), regulatory B'' subunit of PP2A, product of PPP2R3A; residues 24–529; the end at 529 fits the PR72 isoform of 529 residues, not PR130; also called PR72 subunit (residue 24–529); B''α2; source: E. coli BL21(DE3), purified (IMAC, TEV cleavage, gel filtration); not shown: His tag, N-terminal, cleaved
B4: PR70 (130–555) (domain or fragment, human, UniProt Q9Y5P8 130-555, looked up)
chain: FPRGRPQDSVNVDAVISKIESTFARFPHERATMDDMGLVAKACGCPLYWKGPLFYGAGGERTGSVSVHKFVAMWRKILQNCHDDAAKFVHLLMSPGCNYLVQEDFVPFLQDVVNTHPGLSFLKEASEFHSRYITTVIQRIFYAVNRSWSGRITCAELRRSSFLQNVALLEEEADINQLTEFFSYEHFYVIYCKFWELDTDHDLLIDADDLARHNDHALSTKMIDRIFSGAVTRGRKVQKEGKISYADFVWFLISEEDKKTPTSIEYWFRCMDLDGDGALSMFELEYFYEEQCRRLDSMAIEALPFQDCLCQMLDLVKPRTEGKITLQDLKRCKLANVFFDTFFNIEKYLDHEQKEQISLLRDGDSGGPELSDWEKYAAEEYDILVAEETAGEPWEDGFEAELSPVEQKLSALRSPLAQRPFFEAPS
notes: PR70 (B''β), regulatory B'' subunit of PP2A, human, product of PPP2R3B; residues 130–555; source: E. coli BL21(DE3), purified (IMAC, TEV cleavage, gel filtration); not shown: His tag, N-terminal, cleaved
B5: PR70 (105–575) (domain or fragment, human, UniProt Q9Y5P8 105-575, looked up)
chain: GTRVVQTRKEEPLPPATSQSIPTFYFPRGRPQDSVNVDAVISKIESTFARFPHERATMDDMGLVAKACGCPLYWKGPLFYGAGGERTGSVSVHKFVAMWRKILQNCHDDAAKFVHLLMSPGCNYLVQEDFVPFLQDVVNTHPGLSFLKEASEFHSRYITTVIQRIFYAVNRSWSGRITCAELRRSSFLQNVALLEEEADINQLTEFFSYEHFYVIYCKFWELDTDHDLLIDADDLARHNDHALSTKMIDRIFSGAVTRGRKVQKEGKISYADFVWFLISEEDKKTPTSIEYWFRCMDLDGDGALSMFELEYFYEEQCRRLDSMAIEALPFQDCLCQMLDLVKPRTEGKITLQDLKRCKLANVFFDTFFNIEKYLDHEQKEQISLLRDGDSGGPELSDWEKYAAEEYDILVAEETAGEPWEDGFEAELSPVEQKLSALRSPLAQRPFFEAPSPLGAVDLYEYACGDEDLEPL
notes: PR70 (B''β), regulatory B'' subunit of PP2A, human, product of PPP2R3B; source: E. coli BL21(DE3), purified (IMAC, TEV cleavage, gel filtration); not shown: His tag, N-terminal, cleaved
B6: PR70 (130–504) (domain or fragment, human, UniProt Q9Y5P8 130-504, looked up)
chain: FPRGRPQDSVNVDAVISKIESTFARFPHERATMDDMGLVAKACGCPLYWKGPLFYGAGGERTGSVSVHKFVAMWRKILQNCHDDAAKFVHLLMSPGCNYLVQEDFVPFLQDVVNTHPGLSFLKEASEFHSRYITTVIQRIFYAVNRSWSGRITCAELRRSSFLQNVALLEEEADINQLTEFFSYEHFYVIYCKFWELDTDHDLLIDADDLARHNDHALSTKMIDRIFSGAVTRGRKVQKEGKISYADFVWFLISEEDKKTPTSIEYWFRCMDLDGDGALSMFELEYFYEEQCRRLDSMAIEALPFQDCLCQMLDLVKPRTEGKITLQDLKRCKLANVFFDTFFNIEKYLDHEQKEQISLLRDGDSGGPELSDWEK
notes: PR70 (B''β), regulatory B'' subunit of PP2A, human, product of PPP2R3B; residues 130–504; source: E. coli BL21(DE3), purified (IMAC, TEV cleavage, gel filtration); not shown: His tag, N-terminal, cleaved

Columns and labels:
Assay in all cases: ITC; B''-constructs at 20–40 µM in the cell titrated with 200–300 µM Aα or Aβ constructs; 15°C; 20 mM Tris pH 7.5, 200 mM NaCl, 2 mM CaCl2; 1:1 binding model
PR70 (25–575) = target: B2
PR70 (105–575) = target: B5
A α (HEAT1–15) = target: T1, A α (HEAT1–15) (UniProt P30153 1-589); conditions: both partners purified
T1 construct: PP2A scaffolding subunit A, α isoform, product of PPP2R1A; HEAT repeats 1–15; calculated molecular weight 65.3 kD; also called full length A-subunit; scaffolding A subunit; source: E. coli BL21(DE3), purified (IMAC, TEV cleavage, gel filtration); not shown: His tag, N-terminal, cleaved
T1 sequence (P30153 whole entry, canonical isoform): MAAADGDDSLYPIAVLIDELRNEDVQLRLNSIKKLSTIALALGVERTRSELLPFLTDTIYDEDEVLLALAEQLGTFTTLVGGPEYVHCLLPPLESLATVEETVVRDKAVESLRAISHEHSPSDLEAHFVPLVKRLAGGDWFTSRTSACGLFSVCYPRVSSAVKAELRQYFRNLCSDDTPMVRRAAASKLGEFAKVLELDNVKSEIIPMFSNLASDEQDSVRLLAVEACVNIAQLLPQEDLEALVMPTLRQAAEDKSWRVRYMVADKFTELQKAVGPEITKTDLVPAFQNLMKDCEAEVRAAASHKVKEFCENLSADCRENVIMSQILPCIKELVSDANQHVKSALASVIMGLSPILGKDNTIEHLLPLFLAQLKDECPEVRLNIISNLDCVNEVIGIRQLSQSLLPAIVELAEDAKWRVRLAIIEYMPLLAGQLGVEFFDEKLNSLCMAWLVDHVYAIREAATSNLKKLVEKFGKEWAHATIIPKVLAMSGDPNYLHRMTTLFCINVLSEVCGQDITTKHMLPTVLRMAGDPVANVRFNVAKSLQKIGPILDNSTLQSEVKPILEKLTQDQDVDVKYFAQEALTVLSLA

**Q.** “A β (HEAT1–15) (from UniProt P30154 1-601) (natural protein)” was tested. Which Kd (PR70 (25–575)) did it give?
**A.** The Kd was 702 nM.

**Q.** And the dH (PR70 (25–575))?
**A.** The dH was -21.5 kcal/mol.

**Q.** What about the stoichiometry N (PR70 (25–575)) of the same molecule?
**A.** The stoichiometry N was 1.01.

**Q.** What about the Kd (PR70 (105–575)) of the same molecule?
**A.** The Kd was 411 nM.

**Q.** What about the dH (PR70 (105–575)) of the same molecule?
**A.** Its dH is -17.1 kcal/mol.

**Q.** What about the stoichiometry N (PR70 (105–575)) of the same molecule?
**A.** Its stoichiometry N is 0.86.

**Q.** For B1, which Kd (A α (HEAT1–15)) is on record?
**A.** The Kd was over 100000 nM.

**Q.** For B2, which Kd (A α (HEAT1–15)) is on record?
**A.** The Kd was 112 ± 6 nM.

**Q.** For B3, which Kd (A α (HEAT1–15)) is on record?
**A.** The Kd was 2920 ± 300 nM.

**Q.** How did the Kd (A α (HEAT1–15)) turn out when B4 was run?
**A.** The Kd was over 100000 nM.

**Q.** For B5, which Kd (A α (HEAT1–15)) is on record?
**A.** The Kd was 45 ± 8 nM.

**Q.** How did the Kd (A α (HEAT1–15)) turn out when B6 was run?
**A.** Its Kd is over 100000 nM.
